B1: ZBTB22 (parent)
chain: FSSSSQEAFAASAVGSGERRGGGP
B2: TPD52L2 (parent)
chain: EAEEEELRAELTKVEEEIVTLRQV

Variants of: B1
Assay: protein stability index of a GFP-peptide fusion (GPS, HEK-293T) (PSI 1-6); higher = more stable
Settings: c terminus: a fixed tail appended
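Further: lentivirally expressed fusions sorted by FACS into six bins by GFP to DsRed ratio, PSI derived from sequencing read proportions per bin multiplied by bin number.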

Protein stability index of substitutions, site by site:
Q6: I 2.5; C 3.77; H 2.81; P 3.03; S 2.49; F 2.18; K 1.31; N 3.32; E 4.4; Y 2.13; A 2.74; G 4.22; R 3; V 2.6; L 2.85; M 2.85; T 2.77; D 4.44
E7: C 1.64; M 2.37; N 2.84; Y 1.54; A 2.09; H 2.31; D 3.99; L 1.55; P 3.25; V 1.96; G 3.12; T 2.78; S 2.57; R 2.36; Q 3.67; I 2.24; K 2.82
S3: T 4.04; H 4.13; C 2.97; E 4.38; R 3.54; G 2.35; P 2.99; I 4.37; Q 4.07; N 3.76; W 2.86; M 4.2; L 4.05; V 4.41; Y 3.71; D 4.36; K 4.3; A 3.41; F 3.37
S2: L 3.13; T 2.53; E 5.12; Y 4.54; A 2.29; F 4.08; W 3.16; D 5.17; R 4.52; N 4.13; G 2.2; H 1.77; I 2.26; C 2.62; M 4.01; K 4.86; Q 2.55; V 2.29
S4: F 2.88; N 3.52; Y 3.74; A 3.14; L 3.65; M 3.36; I 3.62; H 3.21; D 3.98; K 2.65; T 3.29; G 1.93; Q 3.09; E 4.28; P 4.25; W 1.68; V 3.87; R 2.57
S5: D 4.27; E 4.15; N 3.61; M 2.4; I 3.62; C 2.79; L 3.66; Y 1.95; Q 4.35; A 2.71; K 3.91; P 4.56; T 4.41; F 2.45; H 2.86; W 2.87; V 4.15; R 3.7
F1: M 5.13; C 3.94; G 5.5; Q 5.01; A 4.9; H 4.75; E 5.43; S 4.85; W 5.09; V 5.17; T 5.39; R 5.67; L 5.29; N 5.02; I 5.3; D 5.7; P 5.33; Y 3.48; K 5.04
A8: F 2.55; C 2.47; P 3.94; I 2.75; N 4.21; R 3.96; K 3.79; S 4.18; Q 4.09; G 4.44; M 2.17; H 3.86; D 5.19; E 4.74; L 2.25

Variants of: B2
Assay: as above
Settings: c terminus: a fixed tail appended

Protein stability index: each site, then its substitutions
L21: G 5.24; M 4.72; P 5.57; H 4.08; W 3.63; R 5.56; C 4.72; Y 3.34; S 5.68; D 5.73; A 4.96; E 5.4; I 4.25; K 5.86; Q 5.13; V 5.22; N 5.73; F 4.09; T 5.65
E15: F 3.61; V 2.8; H 5.12; W 3.03; R 4.72; Q 4.9; Y 3.24; M 2.91; N 5.27; I 1.81; P 5.04; G 5.31; K 5.01; D 5.55; C 3.94; T 4.63; S 4.39; L 1.83; A 4.41
V19: Q 3.04; C 3.78; E 4.21; M 3.52; N 4.51; W 2.54; I 2.96; L 3.69; Y 3.71; G 4.79; A 3.96; K 3.89; T 4.44; P 5.45; F 3.27; S 3.98; D 4.82; H 3.9; R 3.88
R22: I 2.44; G 3.79; Y 2.54; D 3.54; W 2.92; P 4.85; S 4.37; T 4.18; H 3.96; L 3.06; N 3.9; C 3.66; A 4.54; V 3.4; M 3.17; F 2.33; E 4.25; K 3.8; Q 3.77
V14: Y 5.05; W 4.05
T20: Y 2.77; K 3.44; F 2.85; G 3.86; N 3.34; Q 4.04; D 5.3; E 3.84; L 2.91; A 3.9; M 2.92; R 3.3; W 2.99; H 3.56; C 3.46; S 3.56; V 3.92; I 3.06; P 4.98
Q23: M 3.65; G 4.54; F 3.19; R 3.73; C 3.9; P 4.58; Y 5.02; E 3.82; H 3.6; K 4.04; D 4.43; L 3.25; I 2.98; W 4.35; N 4.21; S 3.61; A 3.56; V 3.11; T 4.06
I18: N 4.93; Q 5.41; M 5.11; D 5.66; Y 5.12; G 5.67; E 5.86; W 5.09; S 5.45; T 5.19; V 5.35; L 3.92; K 5.19; P 5.69; F 4.52; R 5.71; A 5.93; C 4.55; H 5.24
E16: Y 1.82; P 4.79; Q 3.52; F 2.76; H 3.87; K 3.25; S 3.46; M 2.59; L 3.06; N 3.93; G 4.84; T 4.33; V 3.27; I 2.61; C 3.82; A 3.85; W 2.66; R 2.79; D 4.17
V24: H 3.92; T 4.39; M 3.42; P 4.65; D 5.2; R 4.39; S 4.52; L 3.78; W 3.89; F 3.25; I 4.13; G 3.41; N 4.72; K 4.87; C 3.63; Y 3.83; Q 4.14; A 4.41; E 4.35
E17: G 5.32; N 4.54; K 4.67; H 3.44; A 4.14; T 4.63; R 4.62; M 4.02; W 2.28; P 4.66; F 2.87; S 4.29; D 5.55; I 3.46; Q 3.86; C 4.63; Y 2.35; L 4.24; V 4.05
